Experimental data published in patent publication US20240239884A1 (Merck Sharp & Dohme, published 2024).

Tests used:
[1] = molecular target: T1, human IL-23 (human, UniProt P29460 23-328); experiment: equilibrium binding ELISA on plates coated with human IL-23; potency against reference material; storage at 5 C, 6 months
T1 construct: also called human IL-23 cytokine; human IL-23 protein
T1 sequence 1: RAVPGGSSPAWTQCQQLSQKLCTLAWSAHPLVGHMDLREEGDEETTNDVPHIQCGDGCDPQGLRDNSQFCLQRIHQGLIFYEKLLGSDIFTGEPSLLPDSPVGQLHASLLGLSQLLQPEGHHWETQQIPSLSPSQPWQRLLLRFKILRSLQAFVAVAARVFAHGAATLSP
T1 sequence 2: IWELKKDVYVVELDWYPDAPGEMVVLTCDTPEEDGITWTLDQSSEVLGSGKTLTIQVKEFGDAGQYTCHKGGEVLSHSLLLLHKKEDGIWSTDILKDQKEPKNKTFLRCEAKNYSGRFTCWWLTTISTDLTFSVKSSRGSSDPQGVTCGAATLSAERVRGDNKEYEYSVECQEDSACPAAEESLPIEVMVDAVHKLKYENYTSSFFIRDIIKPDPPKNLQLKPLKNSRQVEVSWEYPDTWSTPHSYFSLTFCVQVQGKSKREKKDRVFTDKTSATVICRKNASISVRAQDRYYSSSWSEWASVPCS
Procedure: (§1) The affinity of hum13B8-b in the formulations of the present invention for human IL-23 is assessed in an equilibrium binding ELISA, where serial dilutions of reference material and test samples are applied to assay plates coated with human IL-23 cytokine. This assay may be used, for example, to assess retention of biological activity in various potential therapeutic formulations. Relative potency of the test sample is assessed by comparison of the dose response curve of the test sample to the dose response curve of reference material and calculated as percent of reference.
(§2) ELISAs are performed by methods well known in the art. Briefly, serial dilutions of hum13B8-b in a formulation of the present invention are added to wells of a microtiter plate that had been previously coated with human IL-23 protein and then blocked. After an incubation period, wells are washed and a peroxidase-conjugated goat anti-human IgG (Fc) detection antibody reagent is added. Wells are again washed, and a chemiluminescent peroxidase substrate is added. Signal is read out by chemiluminescence. […] Relative biological potency is calculated by comparing results obtained with test samples with a standard curve based on signal levels obtained with a reference sample. […]

[2] = molecular target: T1, human IL-23; experiment: equilibrium binding ELISA on plates coated with human IL-23; potency against reference material; storage condition RH4 table, initial
Procedure: as §1, §2

[3] = molecular target: T1, human IL-23; experiment: equilibrium binding ELISA on plates coated with human IL-23; potency against reference material; storage at 25H (25 C/60% RH), 6 months
Procedure: as §1, §2

[4] = molecular target: T1, human IL-23; experiment: equilibrium binding ELISA on plates coated with human IL-23; potency against reference material; storage at 5 C, 18 months (second Binding ELISA row)
Procedure: as §1, §2

[5] = molecular target: T1, human IL-23; experiment: equilibrium binding ELISA on plates coated with human IL-23; potency against reference material; storage at 5 C, 12 months (second Binding ELISA row)
Procedure: as §1, §2

[6] = molecular target: T1, human IL-23; experiment: equilibrium binding ELISA on plates coated with human IL-23; potency against reference material; storage at RH4 (40 C/75% RH), 6 months
Procedure: as §1, §2

[7] = molecular target: T1, human IL-23; experiment: equilibrium binding ELISA on plates coated with human IL-23; potency against reference material; storage at 5 C, 24 months (second Binding ELISA row)
Procedure: as §1, §2

[8] = molecular target: T1, human IL-23; experiment: equilibrium binding ELISA on plates coated with human IL-23; potency against reference material; storage at 25H (25 C/60% RH), 12 months (second Binding ELISA row)
Procedure: as §1, §2

[9] = molecular target: T1, human IL-23; experiment: equilibrium binding ELISA on plates coated with human IL-23; potency against reference material; storage condition 25H table, initial
Procedure: as §1, §2

[10] = molecular target: T1, human IL-23; experiment: equilibrium binding ELISA on plates coated with human IL-23; potency against reference material; storage at 5 C, initial
Procedure: as §1, §2

B1: humanized anti-IL-23p19 antibody 13B8-b (antibody, human IgG1, kappa, V domains shown)
VH: QVQLVQSGAEVKKPGASVKVSCKASGYIFITYWMTWVRQAPGQGLEWMGQIFPASGSADYNEKFEGRVTMTTDTSTSTAYMELRSLRSDDTAVYYCARGGGGFAYWGQGTLVTVSS
VL: DIQMTQSPSSLSASVGDRVTITCRTSENIYSYLAWYQQKPGKAPKLLIYNAKTLAEGVPSRFSGSGSGTDFTLTISSLQPEDFATYYCQHHYGIPFTFGQGTKVEIKR
notes: Made in CHO cells; Tested as a stored formulation (10 mM histidine pH 6.0, 7% sucrose, 0.05% polysorbate 80, about 100 mg/ml); also called hum13B8-b; anti-IL-23p19 mAb hum13B8-b
Question: What does the source list for B1?
Answer: Binding ELISA Potency relative to control [%] [1]: 96%; Binding ELISA Potency relative to control [%] [2]: 112%; Binding ELISA Potency relative to control [%] [3]: 99%; Binding ELISA Potency relative to control [%] [4]: 100%; Binding ELISA Potency relative to control [%] [5]: 98%; Binding ELISA Potency relative to control [%] [6]: 104%; Binding ELISA Potency relative to control [%] [7]: 103%; Binding ELISA Potency relative to control [%] [8]: 105%; Binding ELISA Potency relative to control [%] [9]: 112%; Binding ELISA Potency relative to control [%] [10]: 112%
